In assay [1] the target is T1, Recombinant human VISTA Fc Chimera (human).
T1 construct: also called rhVISTA; VISTA/IgG Fc fusion protein
Put plainly: functional ELISA; rhVISTA coated 2 µg/mL, biotinylated rhVSIG3, streptavidin-HRP. On the procedure:
Recombinant human VSIG3 Fc Chimera (“rhVSIG3”—encoded by SEQ ID NO:3; see Table 1) specifically binds to a recombinant human VISTA Fc Chimera (“rhVISTA”—encoded by SEQ ID NO:6; see Table 1) on a functional ELISA binding assay. rhVISTA was coated on the wells of a ELISA microtiter plate at 2 μg/ml in a 100 μL volume. Following blocking of the wells with 1% BSA, varying amounts of rhVSIG3 labeled with biotin was added. Biotin label associated with the plate due to the rhVSIG3-rhVISTA interaction was detected with streptavidin-HRP. […] The non-specific binding is subtracted and in all cases was less than 5% of the total signal.
A general note: An ELISA detects its analyte on a solid surface through an enzyme-linked reagent.

The target of assay [2] is VISTA(1-195)-COMP-His (human). Put plainly: SPR (Biacore T200); VISTA-COMP against monomeric VISTA, VSIG3-Fc analyte. On the procedure:
(§1) VISTA or VISTA-COMP (each prepared as described in Example 4) was covalently immobilized to the surface of a CM5 chip (GE Healthcare, US) using an anti-poly His antibody. Dilutions of VSIG3 Fc-fusion were then flowed over the surface at concentration ranging between 0.2 nM and 20 μM and the double reference subtracted data fit to a 1:1 Langmuir binding model with Biacore T200 Evaluation Software version 3.1
This increase is largely due to an […].
For orientation: Surface plasmon resonance follows binding to a sensor surface in real time, without labels.

In assay [3] the target is monomeric VISTA (human). Put plainly: SPR (Biacore T200); monomeric VISTA captured by anti-poly His antibody on CM5 chip, VSIG3-Fc analyte, 1:1 Langmuir fit. On the procedure:
as §1

The target in assay [4] is VISTA(1-195)-COMP-His (human). Briefly: SPR (Biacore): VISTA-COMP captured by anti-poly-His antibody on a CM5 chip, VSIG3-Fc analyte 0.2 to 500 nM, 1:1 fit. Here is the method: (§2) FIG. 9A-FIG. 9D show schematics and quantification of the kinetics and affinity of the VISTA-VSIG3 interaction by surface plasmon resonance (Biacore) using monomeric VISTA and multimeric VISTA-COMP. FIG. 9A and FIG. 9C show schematics of the Biacore experiment, where VISTA (FIG. 9A) or VISTA-COMP (FIG. 9C) is captured on the surface of a CM5 chip (GE Healthcare) using an anti-poly His antibody. The analyte, VSIG3-Fc, is flowed over the captured VISTA at concentration ranging between 0.2 nM and 20 μM. FIG. 9B and FIG. 9D show resulting sensorgrams and kinetic fits using a 1:1 model for the monomeric VISTA-VSIG3-Fc interaction (FIG. 9B) and the multimeric VISTA-COMP-VSIG3-Fc interaction (FIG. 9D). For captured monomeric VISTA, the VSIG3-Fc analyte was tested in the range of 0.247 μM to 20 μM. For captured multimeric VISTA-COMP, the VSIG3-Fc analyte was tested in the range of 0.2 nM to 500 nM.
Chain of VISTA(1-195)-COMP-His (human) (chain, as listed by the source): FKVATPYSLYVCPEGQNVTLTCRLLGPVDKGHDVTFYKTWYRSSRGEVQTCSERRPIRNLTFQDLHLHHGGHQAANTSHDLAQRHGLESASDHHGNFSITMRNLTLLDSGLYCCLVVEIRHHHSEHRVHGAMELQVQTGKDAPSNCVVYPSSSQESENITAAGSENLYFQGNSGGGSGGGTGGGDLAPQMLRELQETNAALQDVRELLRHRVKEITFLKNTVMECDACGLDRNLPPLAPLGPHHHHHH
as §1

Assay [5] concerns the target VISTA(1-195)-COMP-His (human). Put plainly: SPR (Biacore T200); VISTA-COMP captured by anti-poly His antibody on CM5 chip, VSIG3-Fc analyte, 1:1 Langmuir fit. On the procedure:
as §1

In assay [6] the target is monomeric VISTA (human). Put plainly: SPR (Biacore): monomeric VISTA captured by anti-poly-His antibody on a CM5 chip, VSIG3-Fc analyte 0.247 to 20 µM, 1:1 fit. On the procedure: as §2, §1
Chain of monomeric VISTA (human) (Q9H7M9 33-194): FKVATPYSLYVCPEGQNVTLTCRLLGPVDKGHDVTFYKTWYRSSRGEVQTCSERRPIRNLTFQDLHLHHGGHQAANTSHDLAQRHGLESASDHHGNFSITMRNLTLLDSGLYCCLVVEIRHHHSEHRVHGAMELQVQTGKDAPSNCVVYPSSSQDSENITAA
The target of assay [7] is T1, Recombinant human VISTA Fc Chimera. Briefly: AVEXIS screen.

The text below walks through data of patent US20200362031A1 (BIO TECHNE, published 2020).

B1: Recombinant human VSIG3 Fc Chimera (Fc fusion)
chain: LEVSESPGSIQVARGQTAVLPCTFTTSAALINLNVIWMVTPLSNANQPEQVILYQGGQMFDGAPRFHGRVGFTGTMPATNVSIFINNTQLSDTGTYQCLVNNLPDIGGRNIGVTGLTVLVPPSAPHCQIQGSQDIGSDVILLCSSEEGIPRPTYLWEKLDNTLKLPPTATQDQVQGTVTIRNISALSSGLYQCVASNAIGTSTCLLDLQVISPQPRNIGLIAGIEGRMDPKSCDKTHTCPPCPAPEAEGAPSVFLFPPKPKDTLMISRTPEVTCVVVDVSHEDPEVKFNWYVDGVEVHNAKTKPREEQYNSTYRVVSVLTVLHQDWLNGKEYKCKVSNKALPAPIEKTISKAKGQPREPQVYTLPPSRDELTKNQVSLTCLVKGFYPSDIAVEWESNGQPENNYKATPPVLDSDGSFFLYSKLTVDKSRWQQGNVFSCSVMHEALHNHYTQKSLSLSPGK
notes: also called rhVSIG3; rhVSIG-3
For the molecule B1, in assay [1], the EC50 (as a rule, the concentration at which the effect is half-maximal) is approximately 0.25 µg/mL. In addition, in the assay with VISTA(1-195)-COMP-His [2], the “fold higher affinity than with monomeric VISTA” value is approximately 150 fold. The Kd – broadly, the free concentration of one partner at which half of the binding sites on the other are occupied at equilibrium, for simple one-to-one binding – in the assay with monomeric VISTA [3] is approximately 2500 nM; with VISTA(1-195)-COMP-His [4], 17 nM; in the assay with VISTA(1-195)-COMP-His [5] it was approximately 17 nM; with monomeric VISTA [6], 2520 nM.

B2: VSIG3(1-245)-COMP-AlkPhos-Flag/His (other)
chain: LEVSESPGSIQVARGQPAVLPCTFTTSAALINLNVIWMVTPLSNANQPEQVILYQGGQMFDGAPRFHGRVGFTGTMPATNVSIFINNTQLSDTGTYQCLVNNLPDIGGRNIGVTGLTVLVPPSAPHCQIQGSQDIGSDVILLCSSEEGIPRPTYLWEKLDNTLKLPPTATQDQVQGTVTIRNISALSSGLYQCVASNAIGTSTCLLDLQVISPQPRNIGLIAGSENLYFQGNSGGGSGGGTGGGDLAPQMLRELQETNAALQDVRELLRHRVKEITFLKNTVMECDACGLDRNLPPLAPLGPIIPVEEENPDFWNREAAEALGAAKKLQPAQTAAKNLIIFLGDGMGVSTVTAARILKGQKKDKLGPEIPLAMDRFPYVALSKTYNVDKHVPDSGATATAYLCGVKGNFQTIGLSAAARFNQCNTTRGNEVISVMNRAKKAGKSVGVVTTTRVQHASPAGTYAHTVNRNWYSDADVPASARQEGCQDIATQLISNMDIDVILGGGRKYMFRMGTPDPEYPDDYSQGGTRLDGKNLVQEWLAKRQGARYVWNRTELMQASLDPSVTHLMGLFEPGDMKYEIHRDSTLDPSLMEMTEAALRLLSRNPRGFFLFVEGGRIDHGHHESRAYRALTETIMFDDAIERAGQLTSEEDTLSLVTADHSHVFSFGGYPLRGSSIFGLAPGKARDRKAYTVLLYGNGPGYVLKDGARPDVTESESGSPEYRQQSAVPLDEETHAGEDVAVFARGPQAHLVHGVQEQTFIAHVMAFAACLEPYTACDLAPPAGTTDDYKDDDDKHHHHHH
notes: also called penta-VSIG3
Take B2: in assay [7], the binding result is “no binding”.
